Patent US9308238B2, “Compositions and methods for modulating EMT and uses thereof” (Whitehead Institute for Biomedical Research, priority 2010, dated 2016)

Legend:
HMLE-iEMT-a cells = assay: Boyden chamber migration assay, iEMT-cells; assay type: cell-based, human; settings: SFRP1 1 μg/ml/d, BMP4 0.5 μg/ml/d; extent comparable to HTwist and MSP cells
Protocol: FIGS. 5A-5H. Concomitant stimulation of Wnt and TGF-beta pathways allows HMLE^24+ cells to enter into a mesenchymal and SC-like state. (FIG. 5A) RT-PCR: N-Cadherin, Zeb1 and Zeb2, L32 was loading control, n=3. Prior RNA isolation, HMLE^24+-shGFP or -shSFRP1 (stable knockdown of SFRP1, FIG. 12A) cells were treated for 3 days with daily doses of indicated factors: anti-DKK1 antibody (10 μg/ml), anti-E-Cadherin antibody (1 μg/ml), TGF-beta 1 (5 ng/ml), Wnt5a (250 ng/ml), (FIG. 5B) Brightfield microscopy: images of control, TGF-beta- and iEMT-cocktail treated HMLE^24+ cells after 14 days of treatment as indicated (see also FIG. 12D). (FIG. 5C) RT-PCR: Zeb1, Zeb2, E-Cadherin and N-Cadherin, L32 was loading control, n=3. After 14 day treatment, cells were expanded in absence of further stimulation for 4 passages. Shown are PBS-treated control HMLE^24+-shGFP and HMLE^24+-shSFRP1 cells, two HMLE^24+-shGFP cultures treated with TGF-beta 1 (TGF-β-a and -b), two HMLE^24+-shSFRP1 cultures treated with the iEMT-cocktail (iEMT-a and -b). […] (FIG. 5G) Lung metastasis: cells expanded for 8 passages after cessation of treatment as described in (C) were transformed with RAS; 1.0×10^5 cells were injected into the mammary fat pads of mice; GFP-labeled metastases on the surface of the lungs were quantified; *control vs. all other groups, p<0.05, n=5 mice/group. […]

MSP-RAS cells = assay: Boyden chamber migration assay, MSP-RAS cells; assay type: cell-based, human; settings: SFRP1 1 μg/ml, BMP4 0.5 μg/ml
Protocol: FIGS. 4A-4G. Autocrine Signaling controls tumorigenicity and metastasis of MSP-RAS cells. (FIG. 4A) Migration assay: RAS-transformed MSP (MSP-RAS) were seeded in Boyden Chamber migration assays and recombinant SFRP1 (1 μg/ml) and BMP4 protein (0.5 μg/ml) were added; *control vs. single treatment, p<1×10^−8, **single vs. double treatment with SFRP1 and BMP4 (S+B), p<1×10^−4, n=3. […] (FIG. 4E) Lung metastasis: fluorescence microscopy images of the major left lung lobe showing GFP-expressing metastatic nodules and quantification of the number of lung surface metastases; *control vs. SFRP1 treatment, p<0.05, **SFRP1 vs. BMP4 or double treatment (S+B), p<0.05, n=5 mice/group. (FIG. 4F) Liver metastasis: fluorescence microscopy images of the liver surface showing GFP-expressing micro-metastatic nodules after implantation of cells as described in (D) and quantification: 5 fields of liver surface were counted per mouse, *control vs. single treatment, p<0.05, **single vs. double treatment (S+B), p<0.05, n=5 mice/group. […]

B1: SFRP1: Recombinant human SFRP1 protein (R&D Systems), secreted decoy receptor binding canonical and non-canonical Wnt ligands (protein, UniProt Q8N474 32-314, looked up)
Secreted frizzled-related …: SEYDYVSFQSDIGPYQSGRFYTKPPQCVDIPADLRLCHNVGYKKMVLPNLLEHETMAEVKQQASSWVPLLNKNCHAGTQVFLCSLFAPVCLDRPIYPCRWLCEAVRDSCEPVMQFFGFYWPEMLKCDKFPEGDVCIAMTPPNATEASKPQGTTVCPPCDNELKSEAIIEHLCASEFALRMKIKEVKKENGDKKIVPKKKKPLKLGPIKKKDLKKLVLYLKNGADCPCHQLDNLSHHFLIMGRKVKSQYLLTAIHKWDKKNKEFKNFMKKMKNHECPTFQSVFK
effect on migration of iEMT-cells (HMLE-iEMT-a cells): inhibited | decrease of motility in vitro (MSP-RAS cells): 9 fold

B2: BMP4: Recombinant BMP4 protein obtained from Stemgent (protein, UniProt P12644 293-408, looked up)
Bone morphogenetic protein 4: SPKHHSQRARKKNKNCRRHSLYVDFSDVGWNDWIVAPPGYQAFYCHGDCPFPLADHLNSTNHAIVQTLVNSVNSSIPKACCVPTELSAISMLYLDEYDKVVLKNYQEMVVEGCGCR
effect on migration of iEMT-cells (HMLE-iEMT-a cells): inhibited | decrease of motility in vitro (MSP-RAS cells): 4 fold
